The data set is described as follows: self-splicing fitness, log relative to wild type (ln ratio); higher = more splicing; Tetrahymena group I intron in knt gene, E. coli kanamycin selection, DiMSum; sequences stand for … in CUCUCU…GGAGGGAAAAGUUAUCAGGCAUGCACCUGGUAGCUAGUCUUUAAACCAAUAGAUUGCAUCGGUUUAAAAGGCAAGACCGUCAAAUUGCGGGAAAGGGGUCAACAGCCGUUCAGUACCAAGUCUCAGGGGAAACUUUGAGAUGGCCUUGCAAAGGGUAUGGUAAUAAGCUGACGGACAUGGUCCUAACCACGCAGCCAAGUCCUAAGUCAACAGAUCUUCUGUUGAUAUGGAUGCAGUUCACAGACUAAAUGUCGGUCGGGGAAGAUGUAUUCUUCUCAUAAGAUAUAGUCGGACCUCUCCUUAAUGGGAGCUAGCGGAUGAAGUGAUGCAACACUGGAGCCGCUGGGAACUAAUUUGUAUGCGAAAGUAUAUUGAUUAGUUUUGGAGUACUCGUGGUCG
An outline of the steps: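 Pooled colonies went to amplicon sequencing on an Illumina HiSeq 2500 after six replicate transformations. The plates were LB agar with 100 μg/mL carbenicillin, 50 μM IPTG and 0.2% rhamnose, with or without 25 μg/mL kanamycin, incubated overnight at 37°C or 30°C. The E. coli BL21(DE3) library had all eight P1ex-region intron nucleotides randomised, the intron placed in the knt kanamycin-resistance gene on pET-22b(+). DiMSum fitness is the error-weighted combination of replicate fold changes, kanamycin against none, normalised to wild type.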

± gives the uncertainty stated by the source.

Consider AGGGAGCAAUAUUACGGGGC, for which, under “37 °C”, the “self-splicing fitness (ln)” value is -0.893 ± 0.36.

UAAUAGCAAUAUUACGGCUU: the “self-splicing fitness (ln)” value was -0.901 ± 0.096 (30 °C) and -0.115 ± 0.13 (37 °C).

For the sequence AAGGAGCAAUAUUACGCUCC, the “self-splicing fitness (ln)” value (37 °C) was -1.7 ± 0.47.

As to AGUGAGCAAUAUUACGGGGG, the “self-splicing fitness (ln)” value is, setting by setting: (30 °C) -3.05 ± 0.31; (37 °C) -2.87 ± 0.3.

Regarding CGAAAGCAAUAUUACGUCCU, the “self-splicing fitness (ln)” value reads like this: (30 °C) -0.837 ± 0.11; (37 °C) -0.445 ± 0.13.

Consider UUAGAGCAAUAUUACGACGA, for which the “self-splicing fitness (ln)” value amounted to 0.428 ± 0.12 (30 °C) and 0.651 ± 0.15 (37 °C).

In the case of GGUAAGCAAUAUUACGAGAC, the “self-splicing fitness (ln)” value was -1.71 ± 0.39 (30 °C) and -0.652 ± 0.27 (37 °C).

As for UCGGAGCAAUAUUACGUUUU, the “self-splicing fitness (ln)” value (30 °C) was -3.91 ± 0.4.

Turning to CAUGAGCAAUAUUACGACGA, the “self-splicing fitness (ln)” value (30 °C) was -2.3 ± 0.3 and the “self-splicing fitness (ln)” value (37 °C) is -1.85 ± 0.21.

Regarding GGAUAGCAAUAUUACGAAGA, the “self-splicing fitness (ln)” value reads like this: (30 °C) -2.93 ± 0.34; (37 °C) -1.82 ± 0.31.

Regarding CGCUAGCAAUAUUACGCUGG, the “self-splicing fitness (ln)” value (30 °C) is -2.63 ± 0.28 and the “self-splicing fitness (ln)” value (37 °C) was -1.85 ± 0.36.

As for AGAUAGCAAUAUUACGCGCU, the “self-splicing fitness (ln)” value is -2.31 ± 0.12 (30 °C) and -1.44 ± 0.14 (37 °C).

As for CAGAAGCAAUAUUACGGUUC, the “self-splicing fitness (ln)” value by setting is: (30 °C) -3.71 ± 0.19; (37 °C) -2.49 ± 0.2.

Take UUCAAGCAAUAUUACGAGUA: the “self-splicing fitness (ln)” value is -0.831 ± 0.083 (30 °C) and -0.136 ± 0.089 (37 °C).

UGUGAGCAAUAUUACGUGUG: the “self-splicing fitness (ln)” value (30 °C) was -2.7 ± 0.11 and the “self-splicing fitness (ln)” value (37 °C) was -0.66 ± 0.13.

In the case of GGGCAGCAAUAUUACGGUAA, the “self-splicing fitness (ln)” value reads like this: (30 °C) -1.69 ± 0.27; (37 °C) -0.663 ± 0.19.

As to CGCGAGCAAUAUUACGUAGC, the “self-splicing fitness (ln)” value by setting is: (30 °C) -3.66 ± 0.3; (37 °C) -2.5 ± 0.32.

Take UCCGAGCAAUAUUACGACGU: the “self-splicing fitness (ln)” value was -1.05 ± 0.07 (30 °C) and 0.0752 ± 0.11 (37 °C).

On to CACUAGCAAUAUUACGGGCC, for which the “self-splicing fitness (ln)” value (30 °C) was -4.05 ± 0.25 and the “self-splicing fitness (ln)” value (37 °C) was -2.56 ± 0.22.

As for GGCUAGCAAUAUUACGCCUG, the “self-splicing fitness (ln)” value runs as follows: (30 °C) -3.72 ± 0.29; (37 °C) -1.95 ± 0.23.

Regarding AAGGAGCAAUAUUACGAGCC, the “self-splicing fitness (ln)” value (30 °C) is -0.997 ± 0.17.

Consider AAGCAGCAAUAUUACGGAUA, for which the “self-splicing fitness (ln)” value (30 °C) was -2.22 ± 0.2 and the “self-splicing fitness (ln)” value (37 °C) was -1.72 ± 0.15.

As to GUCCAGCAAUAUUACGGUUU, the “self-splicing fitness (ln)” value runs as follows: (30 °C) -0.181 ± 0.052; (37 °C) 0.389 ± 0.064.

In the case of GGCUAGCAAUAUUACGGAGC, the “self-splicing fitness (ln)” value is, setting by setting: (30 °C) -3.22 ± 0.22; (37 °C) -2.25 ± 0.26.

Take UAUAAGCAAUAUUACGAUUG: the “self-splicing fitness (ln)” value is -1.48 ± 0.11 (30 °C) and -0.744 ± 0.13 (37 °C).

Consider UGUCAGCAAUAUUACGCGGA, for which the “self-splicing fitness (ln)” value is, setting by setting: (30 °C) -2.91 ± 0.2; (37 °C) -1.52 ± 0.15.

GAUAAGCAAUAUUACGUUGA: the “self-splicing fitness (ln)” value was -2.88 ± 0.14 (30 °C) and -1.79 ± 0.14 (37 °C).

For GUCUAGCAAUAUUACGCUAA, the “self-splicing fitness (ln)” value runs as follows: (30 °C) -0.815 ± 0.091; (37 °C) 0.163 ± 0.093.

With UCCUAGCAAUAUUACGUUAU, the “self-splicing fitness (ln)” value (30 °C) was -2.99 ± 0.19 and the “self-splicing fitness (ln)” value (37 °C) was -2.59 ± 0.24.

As for CCCCAGCAAUAUUACGCUAG, the “self-splicing fitness (ln)” value by setting is: (30 °C) -3.68 ± 0.13; (37 °C) -2.86 ± 0.17.

As to CGGCAGCAAUAUUACGCAUA, the “self-splicing fitness (ln)” value (30 °C) was -2.08 ± 0.21 and the “self-splicing fitness (ln)” value (37 °C) was -1.03 ± 0.13.

In the case of AUGGAGCAAUAUUACGUCGG, the “self-splicing fitness (ln)” value runs as follows: (30 °C) -2.7 ± 0.26; (37 °C) -1.13 ± 0.24.

For the sequence AUUCAGCAAUAUUACGUUAA, the “self-splicing fitness (ln)” value by setting is: (30 °C) -1.62 ± 0.12; (37 °C) -0.923 ± 0.1.

As to ACACAGCAAUAUUACGAUAC, the “self-splicing fitness (ln)” value was -2.58 ± 0.26 (30 °C) and -2.69 ± 0.25 (37 °C).

For ACUCAGCAAUAUUACGAUAA, the “self-splicing fitness (ln)” value runs as follows: (30 °C) -1.25 ± 0.078; (37 °C) -0.67 ± 0.097.

For the sequence UACGAGCAAUAUUACGCCUC, the “self-splicing fitness (ln)” value (37 °C) was -2.06 ± 0.34.

Regarding UUUCAGCAAUAUUACGGAAA, the “self-splicing fitness (ln)” value is -2.7 ± 0.47 (30 °C) and -2.07 ± 0.22 (37 °C).

In the case of AAAGAGCAAUAUUACGAUUC, the “self-splicing fitness (ln)” value by setting is: (30 °C) -2.3 ± 0.14; (37 °C) -1.61 ± 0.14.

Turning to UUAUAGCAAUAUUACGUUAA, the “self-splicing fitness (ln)” value runs as follows: (30 °C) -2.07 ± 0.29; (37 °C) -1.61 ± 0.22.

Source of the values: the supplement of paper PMC7877785.
